Sequences and labels used below:
B1: Peripheral plasma membrane protein CASK (Homo sapiens), O14936 (parent)
chain: MADDDVLFEDVYELCEVIGKGPFSVVRRCINRETGQQFAVKIVDVAKFTSSPGLSTEDLKREASICHMLKHPHIVELLETYSSDGMLYMVFEFMDGADLCFEIVKRADAGFVYSEAVASHYMRQILEALRYCHDNNIIHRDVKPHCVLLASKENSAPVKLGGFGVAIQLGESGLVAGGRVGTPHFMAPEVVKREPYGKPVDVWGCGVILFILLSGCLPFYGTKERLFEGIIKGKYKMNPRQWSHISESAKDLVRRMLMLDPAERITVYEALNHPWLKERDRYAYKIHLPETVEQLRKFNARRKLKGAVLAAVSSHKFNSFYGDPPEELPDFSEDPTSSGLLAAERAVSQVLDSLEEIHALTDCSEKDLDFLHSVFQDQHLHTLLDLYDKINTKSSPQIRNPPSDAVQRAKEVLEEISCYPENNDAKELKRILTQPHFMALLQTHDVVAHEVYSDEALRVTPPPTSPYLNGDSPESANGDMDMENVTRVRLVQFQKNTDEPMGITLKMNELNHCIVARIMHGGMIHRQGTLHVGDEIREINGISVANQTVEQLQKMLREMRGSITFKIVPSYRTQSSSCERDSPSTSRQSPANGHSSTNNSVSDLPSTTQPKGRQIYVRAQFEYDPAKDDLIPCKEAGIRFRVGDIIQIISKDDHNWWQGKLENSKNGTAGLIPSPELQEWRVACIAMEKTKQEQQASCTWFGKKKKQYKDKYLAKHNAVFDQLDLVTYEEVVKLPAFKRKTLVLLGAHGVGRRHIKNTLITKHPDRFAYPIPHTTRPPKKDEENGKNYYFVSHDQMMQDISNNEYLEYGSHEDAMYGTKLETIRKIHEQGLIAILDVEPQALKVLRTAEFAPFVVFIAAPTITPGLNEDESLQRLQKESDILQRTYAHYFDLTIINNEIDETIRHLEEAVELVCTAPQWVPVSWVY

Variants of B1 are the subject of the experiment. The settings on record: with nrx1b_rat Nrxn1, Q63373.
Sequence of nrx1b_rat Nrxn1, Q63373 (Q63373 whole entry): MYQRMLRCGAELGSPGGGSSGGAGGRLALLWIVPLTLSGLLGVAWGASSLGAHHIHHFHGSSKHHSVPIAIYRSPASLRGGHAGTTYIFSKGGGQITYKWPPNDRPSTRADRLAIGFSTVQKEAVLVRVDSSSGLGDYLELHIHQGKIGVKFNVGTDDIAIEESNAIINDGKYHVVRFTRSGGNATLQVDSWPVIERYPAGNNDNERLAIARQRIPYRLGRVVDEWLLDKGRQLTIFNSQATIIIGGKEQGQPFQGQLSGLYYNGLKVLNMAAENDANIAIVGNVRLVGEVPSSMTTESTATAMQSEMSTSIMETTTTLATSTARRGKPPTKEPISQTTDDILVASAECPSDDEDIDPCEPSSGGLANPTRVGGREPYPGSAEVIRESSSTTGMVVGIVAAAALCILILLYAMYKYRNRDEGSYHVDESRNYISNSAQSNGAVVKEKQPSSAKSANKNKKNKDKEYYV
As for S24D;V26L, the “effect of a mutation on the interaction” value is “decreasing interaction”.

For the origin of these results see IntAct's records for PubMed 18423203.
